Reference: publication PMC3943285, “Activity of a Carboxyl-Terminal Truncated Form of Catechol 2,3-Dioxygenase from Planococcus sp. S5” (The Scientific World Journal, 2014)

Test system: Oc1ccccc1O
Assay: cells, lysate or membranes
Conditions: catechol 0-150 µM, 35 °C, 50 mM phosphate pH 7.5 (general assay), O2 co-substrate, crude extract
[1] = C-terminally truncated (stop at 289)

“C23Owt (catechol 2,3-dioxygenase from Planococcus sp. S5) (Planococcus sp. S5; C103R)” was tested, and the Km [1] was 66.17 ± 9.44 µM and the Vmax [1] was 0.104 µmol/min/mg.
“C23Owt (catechol 2,3-dioxygenase from Planococcus sp. S5) (Planococcus sp. S5)” was tested, and the Km was 97.74 ± 10.91 µM and the Vmax was 0.115 µmol/min/mg.
